Measurements reported in patent publication US12427163B2, “Anti-VTCN1 antibodies and antibody drug conjugates” (Bluefin BioMedicine, Inc., priority 2017, dated 2025).

T1: VTCN1 IgV domain (Homo sapiens, UniProt Q7Z7D3)
T1 construct: one with an IgV domain only and one with an IgC domain only; expressed in transfected cells
T1 sequence (Q7Z7D3 35-146 limits assumed): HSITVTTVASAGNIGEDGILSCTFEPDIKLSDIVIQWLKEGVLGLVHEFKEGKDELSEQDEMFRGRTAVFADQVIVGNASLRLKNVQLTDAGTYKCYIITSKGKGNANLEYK

T2: 293-VTCN1 cells (Homo sapiens, UniProt Q7Z7D3)
T2 construct: 293-VTCN1 (full length); expressed in transfected cells; host or cells: HEK293
T2 sequence (Q7Z7D3 25-282): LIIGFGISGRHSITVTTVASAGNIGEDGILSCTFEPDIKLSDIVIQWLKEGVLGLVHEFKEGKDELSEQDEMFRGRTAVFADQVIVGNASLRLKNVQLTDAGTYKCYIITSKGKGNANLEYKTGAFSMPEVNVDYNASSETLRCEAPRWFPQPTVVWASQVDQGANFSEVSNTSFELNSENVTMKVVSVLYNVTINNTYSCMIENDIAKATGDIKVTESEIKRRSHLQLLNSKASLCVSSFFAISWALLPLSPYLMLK

T3: 293-VTCN1 (mouse) (Mus musculus, UniProt Q7TSP5)
T3 construct: expressed in transfected cells
T3 sequence (Q7TSP5 25-257): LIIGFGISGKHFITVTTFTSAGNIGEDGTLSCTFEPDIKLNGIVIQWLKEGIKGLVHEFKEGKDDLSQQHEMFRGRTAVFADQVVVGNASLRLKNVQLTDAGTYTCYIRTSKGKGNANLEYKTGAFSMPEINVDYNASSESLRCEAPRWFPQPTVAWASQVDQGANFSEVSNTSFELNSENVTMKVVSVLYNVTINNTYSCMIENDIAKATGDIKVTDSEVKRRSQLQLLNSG

T4: VTCN1 IgC domain (Homo sapiens, UniProt Q7Z7D3)
T4 construct: one with an IgV domain only and one with an IgC domain only; expressed in transfected cells
T4 sequence (Q7Z7D3 153-241 limits assumed): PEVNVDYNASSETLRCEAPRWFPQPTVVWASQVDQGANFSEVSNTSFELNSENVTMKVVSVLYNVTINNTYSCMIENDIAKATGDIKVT

B1: 7C8: fully human VTCN1 antibody; VH SEQ ID NO: 212, VL SEQ ID NO: 216 (antibody, V domains shown)
VH: QVQLQESGPGLVKPSETLSLTCAVSGYSISSGYYWGWIRQPPGKGLEWIGSIYHSGTTYYNPSLKSRVTISVDTSKNQFSLKLNSVTAADTAVYYCATYSSGWYFYFDYWGQGTLVTVSS
VL: DIQLTQSPSFLSASVGDRVTITCRASQGISSYLAWYQQKPGKAPKLLIYVASTLQSGVPSRFSGSGSGTEFTLTISSLQPEDFATYYCQQLNSYPITFGQGTRLEIK
B2: IFNγ: cytokine added to human monocyte cultures (protein, UniProt P01579 24-161, looked up)
Interferon gamma: QDPYVKEAENLKKYFNAGHSDVADNGTLFLGILKNWKEESDRKIMQSQIVSFYFKLFKNFKDDQSIQKSVETIKEDMNVKFFNSNKKKRDDFEKLTNYSVTDLNVQRKAIHELIQVMAELSPAAKTGKRKRSQMLFRG

Legend:
VTCN1 IgV domain = target: T1, VTCN1 IgV domain; experiment: Flow cytometry binding to 293-VTCN1-IgV domain cells; conditions: IgV domain only
Description: (§1) Two constructs were made, one with an IgV domain only and one with an IgC domain only. 293 cells were transfected with VTCN1-IgV and VTCN1-IgC constructs, and stable cell lines of 293 expressing VTCN1-IgV or VTCN1-IgC domains were made. Expression constructs also made to express VTCN1 (monkey, 99% identical to human VTCN1) and VTCN1 (mouse, 88% identical to human VTCN1), stable 293-VTCN1 (monkey), and 293-VTCN1 (mouse) cell lines made by transfecting these constructs.
(§2) Briefly, the 7C8 antibody was incubated with 293 cells, 293-VTCN1 (full length), 293-VTCN1-IgV domain, 293-VTCN1-IgC domain cell lines for 30 min at 4° C., unbound antibody was washed away, cells were then incubated with anti-human-Alexa488 conjugate, and analyzed by flow cytometry.
(§3) It was also assessed whether these antibodies bind to IgV or IgC domain of VTCN1 protein, using 293-VTCN1-IgV domain expressing cells and 293-VTCN1-IgC domain expressing cells using FACS analysis, as in Example 3.

293-VTCN1 cells = target: T2, 293-VTCN1 cells; experiment: Flow cytometry binding to 293-VTCN1 cells (full length)
Procedure: For each hybridoma, unique recombinant heavy chains were paired with unique recombinant light chains. These plasmid pairs were transfected into CHO cells in 24-well plates. Twelve days later conditioned medium from each pairing was subjected to concentration determination by OCTET™ and screened by Flow cytometric analysis for binding to 293-VTCN1 cells.
as §2
Antibody concentration was determined by OCTET™ using protein G biosensor. 0.05 μg/ml, 0.1 μg/ml, 0.5 μg/ml, 1 μg/ml, 5 μg/ml, 10 μg/ml antibodies were incubated with live cells for 30 min. on ice, unbound antibodies were washed off, and a conjugated anti-mouse 2nd antibody was added to the wells for 15 min. Cells were washed twice with flow buffer and analyzed using MACSQuant Analyzer 10 flow cytometer (Miltenyi Biotec, Bergisch Gladbach, Germany). Results from flow cytometry assays indicate that mouse anti-VTCN1 antibodies are capable of binding to 293-VTCN1 cells and MX-1 cells.

293-VTCN1 (mouse) = target: T3, 293-VTCN1 (mouse); experiment: Flow cytometry binding to 293-VTCN1 (mouse) cells
Description: as §1
(§4) Flow cytometry analysis was also performed with 7C8 binding to 293-VTCN1 (monkey) and 293-VTCN1 (mouse).

VTCN1 IgC domain = target: T4, VTCN1 IgC domain; experiment: Flow cytometry binding to 293-VTCN1-IgC domain cells; conditions: IgC domain only
Description: as §1, §2, §3

SKBR3 cells = experiment: Flow cytometry binding to SKBR3 cells (hybridoma screening); parameters: species or system human
Procedure: (§5) Supernatant from hybridoma wells, containing VTCN1 specific antibodies, were re-tested on human breast cell lines SKBR3 and ZR-75-1. 70% confluent MX-1 cells in 10 cm dish were gently washed with 1× cold PBS once, 7 ml cold flow buffer (1×PBS, 0.5% BSA, 2 mM EDTA) was then added, the cells were gently scraped in to flow buffer using rubber cell lifter, pipet up down with 10 ml transfer pipets gently to resuspend the cells. The cells were pelleted by centrifuging them for 5 minutes at 1200 rpm at room temperature. The cell pellets were resuspended in cold flow buffer, the cells were counted and the concentration was adjusted to 1×10^6 cells per 1 mL. Using a multichannel pipette, 200 μL was collected and transferred to 96-V bottom polypropylene plates and spun at 1250 rpm for 5 min at 4° C. to pellet the cells. The cell pellets were resuspended with hybridoma supernatant diluted 2-fold with cold flow buffer and incubated at 4° C. for 30 min. After incubation, cells were washed 2× with flow buffer and then labeled with anti-rat Alexa 647 secondary antibodies for 30 min at 4° C. Unbound secondary antibodies were removed by washing the cells 2× with flow buffer. Cells were then resuspended in 200 μL of flow buffer containing PI to identify dead cells and remove from analysis. […]

ZR-75-1 cells = experiment: Flow cytometry binding to ZR-75-1 cells; parameters: species or system human
Procedure: as §5

MX-1 cells = experiment: Flow cytometry binding to MX-1 cells; parameters: species or system human; conditions: TNBC cell line
Procedure: as §5, with “buffer.” for “buffer. Cells were then resuspended in 200 μL of flow buffer containing PI to identify dead cells and remove from analysis.”
Antibody concentration was determined by OCTET™ using protein G biosensor. […] Cells were washed twice with flow buffer and analyzed using MACSQuant Analyzer 10 flow cytometer (Miltenyi Biotec, Bergisch Gladbach, Germany). […]

293-VTCN1 (monkey) = experiment: Flow cytometry binding to 293-VTCN1 (monkey) cells; parameters: species or system cynomolgus monkey
Description: as §1, §4

human monocytes = experiment: Cytokine treatment of monocytes, expression of VTCN1, PD-L1, CD80 by flow cytometry; assay type: cell-based; conditions: 24, 48, or 73 hours
Procedure: VTCN1 is expressed in monocytes and macrophages in a tumor microenviroment, the expression induced by cytokines in tumor microenviroment. VTCN1 positive macrophages inhibit T cell activation. Monocytes from healthy donors were treated with IFNγ and IL-6 to assess VTCN1 expression. Monocytes were enriched from fresh PBMC from healthy donor using a monocyte enrichment kit from Stemcell Technologies, and the purity of the obtained monocytes is greater than 95%. Monocytes were cultured in 24 well plate with different concentration of INFγ or LI-6 for 24, 48, or 73 hours, expression of VTCN1, PD-L1, and CD80 was assessed by flow cytometry. […] CD80 was expressed at low level in monocytes, and is not very responsive to cytokine treatment.

Row | Molecule | binding to IgV domain of VTCN1 (VTCN1 IgV domain) | binding to 293-VTCN1 cells (full length VTCN1) (293-VTCN1 cells) | cross reactivity with mouse VTCN1 (293-VTCN1 (mouse)) | binding to IgC domain of VTCN1 (VTCN1 IgC domain) | binding to SKBR3 cells (SKBR3 cells) | binding to ZR-75-1 cells (ZR-75-1 cells) | binding to MX-1 cells (MX-1 cells) | cross reactivity with monkey VTCN1 (293-VTCN1 (monkey)) | VTCN1 and PD-L1 expression in monocytes (human monocytes)
1 | B1 | does not bind | binds to full length VTCN1 | cross reacts | does not bind | binds | binds | binds | cross reacts | 
2 | B2 |  |  |  |  |  |  |  |  | VTCN1 and PD-L1 expression was induced
